{
  "source": "paper PMC2872656",
  "target": "Pyrococcus abyssi PAB1135 protein (trypsin-treated) (Pyrococcus abyssi) (UniProt Q9UXX8)",
  "experiment": "SEC; trypsin-treated PAB1135 on Superdex 75 XK 16/60; 50 mM Tris-HCl pH 8.0, 150 mM NaCl, 0.5 mM EDTA; apparent mass against mass markers",
  "data": [
    {"substance": "Pyrococcus abyssi PAB1135 protein (trypsin-treated) (from UniProt Q9UXX8 1-154) (natural protein)", "values": [
      {"measurement": "stoichiometry N", "result": 2}
    ]}
  ]
}
